Measurements from US20230287598A1 (TAURUS BIOSCIENCES, published 2023).
Where a chain is given by its changes, count along the chain named. Names and notes keep the numbering of the source. Read-outs that look alike come from different tables or passages of the source.

Tests used:
Kv1.3 = Kv1.3 (human (T-cells from human blood donors), UniProt P22001 1-575); test: cell-based or functional assay
CXCR1 [1] = target: T1, CXCR1 (UniProt P25024 1-350, limits assumed); test: cell-based or functional assay
T1 sequence (looked up): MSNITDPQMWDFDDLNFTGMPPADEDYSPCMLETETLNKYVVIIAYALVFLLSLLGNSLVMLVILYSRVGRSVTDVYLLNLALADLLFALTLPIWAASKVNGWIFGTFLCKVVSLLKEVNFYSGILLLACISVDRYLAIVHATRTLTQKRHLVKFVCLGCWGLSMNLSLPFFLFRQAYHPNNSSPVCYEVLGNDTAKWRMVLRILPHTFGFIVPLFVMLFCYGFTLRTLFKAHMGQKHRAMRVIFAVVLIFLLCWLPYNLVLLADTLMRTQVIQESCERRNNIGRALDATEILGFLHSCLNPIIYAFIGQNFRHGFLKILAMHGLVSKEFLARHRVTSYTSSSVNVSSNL

CXCR1 [2] = target: T2, CXCR1 (UniProt P25024 1-350, limits assumed); test: flow cytometry, supernatant at 5 nM IgG
T2 construct: whole, on cells; DiscoveRx PathHunter cell line; any reporter tag on the receptor is not described; also called CXCR1 receptor; CXCR1-U2OS
T2 sequence (looked up): T1 sequence (looked up)

CXCR1 [3] = target: T2, CXCR1; test: cell-based or functional assay; remark: listed apart in the source
CXCR1 [4] = target: T2, CXCR1; test: flow cytometry, supernatant at 5 nM IgG; remark: listed apart in the source

Chain of Kv1.3 (P22001 whole entry): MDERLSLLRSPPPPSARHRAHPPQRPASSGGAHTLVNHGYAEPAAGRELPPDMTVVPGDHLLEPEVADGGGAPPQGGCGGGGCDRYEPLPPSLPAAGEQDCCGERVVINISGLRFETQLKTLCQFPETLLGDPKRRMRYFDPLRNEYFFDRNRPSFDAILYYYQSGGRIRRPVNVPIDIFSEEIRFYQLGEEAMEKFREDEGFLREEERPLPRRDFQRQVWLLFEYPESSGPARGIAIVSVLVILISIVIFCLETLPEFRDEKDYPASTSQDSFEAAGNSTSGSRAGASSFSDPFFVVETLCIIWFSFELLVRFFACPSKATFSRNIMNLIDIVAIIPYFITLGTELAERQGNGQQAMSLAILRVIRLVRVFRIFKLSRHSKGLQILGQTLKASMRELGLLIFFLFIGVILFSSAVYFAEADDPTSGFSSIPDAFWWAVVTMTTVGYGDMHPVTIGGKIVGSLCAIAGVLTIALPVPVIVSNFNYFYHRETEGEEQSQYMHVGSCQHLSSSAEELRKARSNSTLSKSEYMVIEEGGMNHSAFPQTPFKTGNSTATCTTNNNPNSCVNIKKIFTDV

B1: BLV1H12 GGS3:3 Moka (antibody)
VH: QVQLRESGPSLVKPSQTLSLTCTASGFSLSDKAVGWVRQAPGKALEWLGSIDTGGNTGYNPGLKSRLSITKDNSKSQVSLSVSSVTTEDSATYYCTSVHQETKKYQSGGSGGSGGSGINVKCSLPQQCIKPCKDAGMRFGKCMNKKCRCYSGGSGGSGGSSYTYNYEWHVDVWGQGLLVTVSSAS
light: not shown
With B1 the “EC50 (nM), inhibition of T-cell activation, IL-2 secretion, Donor 1” value (Kv1.3) was 14.4 nM, the “EC50 (nM), inhibition of T-cell activation, IL-2 secretion, Donor 2” value (Kv1.3) was 40.2 nM and the “EC50 (nM), inhibition of T-cell activation, TNFα secretion, Donor 1” value (Kv1.3) was 19.3 nM. The “EC50 (nM), inhibition of T-cell activation, TNFα secretion, Donor 2” value (Kv1.3) was 38.2 nM.

B2: BLV1H12 GLLV 3xG4S ShK (antibody)
VH: QVQLRESGPSLVKPSQTLSLTCTASGFSLSDKAVGWVRQAPGKALEWLGSIDTGGNTGYNPGLKSRLSITKDNSKSQVSLSVSSVTTEDSATYYCTSVHQETKKYQSGGGGSGGGGSGGGGSGGRSCIDTIPKSRCTAFQCKHSMKYRLSFCRKTCGTCGGGGSGGGGSGGGGSSYTYNYEWHVDVWGQGLLVTVSSAS
light: not shown
With B2 the “EC50 (nM), inhibition of T-cell activation, IL-2 secretion, Donor 1” value (Kv1.3) was 0.1 nM, the “EC50 (nM), inhibition of T-cell activation, IL-2 secretion, Donor 2” value (Kv1.3) was 0.03 nM and the “EC50 (nM), inhibition of T-cell activation, TNFα secretion, Donor 1” value (Kv1.3) was 6.5 nM. The “EC50 (nM), inhibition of T-cell activation, TNFα secretion, Donor 2” value (Kv1.3) was 0.2 nM.

B3: VH4-34 MutE IL-8 5R6E31D32K50S (antibody, human IgG1)
VH: QVQLREWGAGLLKPSETLSLTCAVYGGSFSDKYWSWIRQPPGKGLEWIGSINHSGSTNYNPSLKSRVTISVDTSKNQFSLKLSSVTAADTAVYYCTSVHQETKKYQSPRSAKELRCQCIKTYSKPFHPKFIKELRVIESGPHCANTEIIVKLSDGRELCLDPKENWVQRVVEKFLKRAENSGSGSYTYNYEWHVDVWGQGLLVTVSS
light: QAVLNQPSSVSGSLGQKVTISCSGSSSNIGNNYVSWYQQLPGTAPRTLIYGDTKRPSGIPDRFSGSKSGTSATLGITGLQTGDEADYYCASAEDSSSNAVFGSGTTLTVLGQPKAAPSVTLFPPSSEELQANKATLVCLISDFYPGAVTVAWKADSSPVKAGVETTTPSKQSNNKYAASSYLSLTPEQWKSHRSYSCQVTHEGSTVEKTVAPTECS
B3 was tested, and the “CXCR1 activation, luminescence, 0.1 nM IL-8 domains” value (CXCR1 [1]) was 4060 luminescence, the “CXCR1 activation, luminescence, 0.5 nM IL-8 domains” value (CXCR1 [1]) was 5300 luminescence and the “CXCR1 activation, luminescence, 2.2 nM IL-8 domains” value (CXCR1 [1]) was 10300 luminescence. For the same binder, the “CXCR1 activation, luminescence, 9.9 nM IL-8 domains” value (CXCR1 [1]) was 17100 luminescence, the “CXCR1 activation, luminescence, 44 nM IL-8 domains” value (CXCR1 [1]) was 23300 luminescence and the “CXCR1 activation, luminescence, 200 nM IL-8 domains” value (CXCR1 [1]) was 22300 luminescence.

B4: VH4-34 MutF IL-8 5R6E CD1cow (antibody, human IgG1)
VH: B3 VH with A23T, V24A, Y25S, G27F, F29L, Y33A, W34V, S35G, S50E
light: B3 light
For B4, the “CXCR1 activation, luminescence, 0.1 nM IL-8 domains” value (CXCR1 [1]) was 4180 luminescence, the “CXCR1 activation, luminescence, 0.5 nM IL-8 domains” value (CXCR1 [1]) was 6620 luminescence and the “CXCR1 activation, luminescence, 2.2 nM IL-8 domains” value (CXCR1 [1]) was 13500 luminescence. For the same binder, the “CXCR1 activation, luminescence, 9.9 nM IL-8 domains” value (CXCR1 [1]) was 21900 luminescence, the “CXCR1 activation, luminescence, 44 nM IL-8 domains” value (CXCR1 [1]) was 24000 luminescence and the “CXCR1 activation, luminescence, 200 nM IL-8 domains” value (CXCR1 [1]) was 25000 luminescence.

B5: VH4-34+CDR3-IL8 / VL1-51 S2A, T5N, P8S, A12G, A13S, P14L, K46R, L47T, D51G, N52D, N53T IgG (antibody)
VH: QVQLQQWGAGLLKPSETLSLTCAVYGGSFSGYYWSWIRQPPGKGLEWIGEINHSGSTNYNPSLKSRVTISVDTSKNQFSLKLSSVTAADTAVYYCTSVHQETKKYQSPRSAKELRCQCIKTYSKPFHPKFIKELRVIESGPHCANTEIIVKLSDGRELCLDPKENWVQRVVEKFLKRAENSGSGSYTYNYEWHVDVWGQGLLVTVSSAS
light: B3 light
notes: nt HC 430, LC 486
With B5 the “Specific Binding (CXCR1-Cell median AFU / Parental Cell median AFU)” value (CXCR1 [2]) was 12.

B6: VH4-34+CDR3-IL8_CDR2 Cow / VL1-51 S2A, T5N, P8S, A12G, A13S, P14L, D51G, N52D, N53T IgG (antibody)
VH: B5 VH with I48L, E50S, N52D, H53T, S54G, S56N, N58G
light: B3 light with R46K, T47L
notes: nt HC 433, LC 444
For B6, the “Specific Binding (CXCR1-Cell median AFU / Parental Cell median AFU)” value (CXCR1 [2]) was 4.

B7: VH4-34+CDR3-IL8_CDR2 E50S / VL1-51 S2A, T5N, P8S, A12G, A13S, P14L IgG (antibody)
VH: B5 VH with E50S
light: B3 light with R46K, T47L, G51D, D52N, T53N
B7 was tested, and the “Specific Binding (CXCR1-Cell median AFU / Parental Cell median AFU)” value (CXCR1 [2]) was 4.

B8: VH4-34+CDR3-IL8_CDR2 Cow / VL1-51 S2A, T5N, P8S, A12G, A13S, P14L, K46R, L47T, D51G, N52D, N53T IgG (antibody)
VH: B5 VH with I48L, E50S, N52D, H53T, S54G, S56N, N58G
light: B3 light
notes: nt HC 433, LC 486
With B8 the “Specific Binding (CXCR1-Cell median AFU / Parental Cell median AFU)” value (CXCR1 [2]) was 3.

B9: VH4-34+CDR3-IL8_CDR2 E50S / VL1-51 S2A, T5N, P8S, A12G, A13S, P14L, K46R, L47T, D51G, N52D, N53T IgG (antibody)
VH: B5 VH with E50S
light: B3 light
In the case of B9, the “Specific Binding (CXCR1-Cell median AFU / Parental Cell median AFU)” value (CXCR1 [2]) is reported as 5.

B10: VH4-34+CDR3-IL8_CDR1-G31DY32K_CDR2-E50S_Q5RQ6E / VL1-51 S2A, T5N, P8S, A12G, A13S, P14L, K46R, L47T, D51G, N52D, N53T IgG (antibody)
VH: B3 VH
light: B3 light
notes: also called BID 38; VH4-34 MutE IL-8 5R6E31D32K50S
In the case of B10, the “CXCR1 activation, luminescence at 0.4 nM IL-8 domains” value (CXCR1 [3]) is reported as 6190, the “CXCR1 activation, luminescence at 1.6 nM IL-8 domains” value (CXCR1 [3]) is reported as 8160 and the “CXCR1 activation, luminescence at 6.25 nM IL-8 domains” value (CXCR1 [3]) is reported as 13500. For the same binder, the “CXCR1 activation, luminescence at 25 nM IL-8 domains” value (CXCR1 [3]) was 21000, the “CXCR1 activation, luminescence at 100 nM IL-8 domains” value (CXCR1 [3]) was 25900 and the “Specific Binding (CXCR1-Cell median AFU / Parental Cell median AFU)” value (CXCR1 [4]) was 4.

B11: VH4-34+CDR3-IL8_CDR1 Cow / VL1-51 S2A, T5N, P8S, A12G, A13S, P14L, K46R, L47T, D51G, N52D, N53T IgG (antibody)
VH: B5 VH with A23T, V24A, Y25S, G27F, F29L, G31D, Y32K, Y33A, W34V, S35G
light: B3 light
With B11 the “Specific Binding (CXCR1-Cell median AFU / Parental Cell median AFU)” value (CXCR1 [2]) was 10.
